Measurements published in article PMC4072508, “Genome-Wide Prediction and Validation of Peptides That Bind Human Prosurvival Bcl-2 Proteins” (PLoS Computational Biology, 2014).

T1: Mcl-1, Q07820
T1 chain: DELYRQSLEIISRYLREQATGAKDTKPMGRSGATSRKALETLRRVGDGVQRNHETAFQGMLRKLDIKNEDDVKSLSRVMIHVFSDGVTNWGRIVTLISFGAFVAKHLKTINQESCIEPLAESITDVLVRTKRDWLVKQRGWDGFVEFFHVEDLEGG

T2: Bfl-1, Q16548
T2 chain: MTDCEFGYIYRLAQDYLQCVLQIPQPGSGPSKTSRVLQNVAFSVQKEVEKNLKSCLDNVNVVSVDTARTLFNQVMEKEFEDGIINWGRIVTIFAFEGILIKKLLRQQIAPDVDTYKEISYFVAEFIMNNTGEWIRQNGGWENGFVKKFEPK


Key:
Experiment in all cases: peptide SPOT array, c-Myc-tagged receptor at 1 uM or 100 nM, anti-c-Myc-Cy3
Mcl-1, Q07820 = target: T1, Mcl-1, Q07820
Bcl-xL, Q07817 = target: Bcl-xL, Q07817
Chain of Bcl-xL, Q07817 (Q07817 1-209): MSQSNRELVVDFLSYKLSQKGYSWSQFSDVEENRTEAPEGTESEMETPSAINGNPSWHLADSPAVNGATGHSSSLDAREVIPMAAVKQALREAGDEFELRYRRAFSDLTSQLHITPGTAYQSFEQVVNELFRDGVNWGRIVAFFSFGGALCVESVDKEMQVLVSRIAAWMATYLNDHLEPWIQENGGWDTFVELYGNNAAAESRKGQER

Bfl-1, Q16548 = target: T2, Bfl-1, Q16548

Binder | SPOT signal as a fraction of Bim BH3's signal on the same receptor and array (Mcl-1, Q07820) | SPOT signal as a fraction of Bim BH3's signal on the same receptor and array (Bcl-xL, Q07817) | SPOT signal as a fraction of Bim BH3's signal on the same receptor and array (Bfl-1, Q16548)
PVESSWIAPEDRLQSDDILPLGKDSG | 0.04 | 0.05 | 0.04
FSKREKLVEILRNILDERTMVFVETK [DDX4] | 0.15 | 0.08 | 0.08
LCQLSCVSKLDRDVCGSLLQSRGMVI [FBXO30] | 0.08 | 0.14 | 0.11
TGSLCEIATTLSFELDGFLWVKSGSV [CRB1] | 0.04 | 0.07 | 0.03
KKLKNLEGNELQRHADEFLLDLGHHE [FUT8] | 0.05 | 0.12 | 0.05
HQAEVQIARKDQCIADQFHRLHVQQH | 0.01 | 0.03 | 0.01
SMRRNAMGVGDVFEADLFTTRHISHW [DNAH10] | 0.09 | 0.12 | 0.09
RMIVDCVSSHLKKTGDGAKTFIIFLC [BBS10] | 0.17 | 1 | 0.36
SHFVACMTAILNQMLDQHYSFYIETF [DOCK2] | 0.07 | 0.08 | 0.06
PVESSWIAPELRLQLDDILPLGKDSG | 0.04 | 0.05 | 0.04
PDKRLTLSQIYQYVLDNFPFYNKSKA [FOXI1] | 0.39 | 0.76 | 0.41
HQAEVQIARKLQCILDQFHRLHVQQH | 0.1 | 0.27 | 0.1
MPYMEAVIHEIQRFLDVIPMSLARRV [CYP2A6] | 0.08 | 0.14 | 0.06

More lines, now with the values ahead:

SPOT signal as a fraction of Bim BH3's signal on the same receptor and array (Mcl-1, Q07820) | SPOT signal as a fraction of Bim BH3's signal on the same receptor and array (Bcl-xL, Q07817) | SPOT signal as a fraction of Bim BH3's signal on the same receptor and array (Bfl-1, Q16548) | Binder
0.04 | 0.07 | 0.05 | DDMFEPHSWNLKELLDDCFQQWGVRP
0.06 | 0.07 | 0.05 | GYPFNDVCQWDIDRADLIFVVFDPTK [SRL]
0.34 | 0.3 | 0.36 | GGRVKLVHSALIQLGDSLSHKGNEFW [WDR60]
0.08 | 0.11 | 0.07 | FVGYNSTGAEDRHWSDMLANPRRPIA [SYT1]
0.11 | 0.09 | 0.13 | WTLFVYTKGNFRMILDDLVNSYHLLL [RBL1]
1.62 | 0.85 | 0.61 | TRRSMVFARHDREVGDEFRSRHLNST [POFUT2]
0.13 | 0.1 | 0.06 | VHKHSRLAEVDQLGSDILPQYKQEAP [KCNH1]
0.05 | 0.06 | 0.05 | VLELHPGAQRLHIGCDEVYYLGEGEA [HEXDC]
1.1 | 1.3 | 0.67 | RVCPYYLSRNDKQQADIIFMPYNYLL [RTEL1]
0.28 | 0.29 | 0.12 | TVATRRLSGFDRTLADRLEGTKELLS [MINA]
0.03 | 0.07 | 0.04 | IQENVDISTVDQIFADEVLGSGQFGI [PRKD3]
0.04 | 0.04 | 0.04 | NDDTPWIARTLDNLADELTAILSAPA [GBP6]
0.24 | 0.32 | 0.19 | YIVLGLRKTTDQKVGKEVAELVGRVG [NLRX1]
0.13 | 0.13 | 0.06 | AGYELLIQKFLSLYGDQIDMHRKFVV [ISOC1]
0.04 | 0.07 | 0.05 | DDMFEPHSWNDKELSDDCFQQWGVRP
0.08 | 0.16 | 0.07 | ERLKGQLCDVDLIVGDQKFRAHKNVL [ZNF295]
0.06 | 0.07 | 0.03 | LSIIYTLVEIDQNIGDTNLADFTAGL [SLC26A4]
0.04 | 0.09 | 0.03 | PSECETLGSNLGHNADLLNENNILAK [ZFP90]
0.04 | 0.05 | 0.03 | EAVTDGLKRADRSFGNALGNCILDKD [RAD52]
